Laboratory results taken from the RNAGym collection of RNA variant scans (doi:10.7554/elife.80360).

B1: Hairpin Ribozyme (parent)
chain: GUCCUCUUUCACGUGCGCGUGAAAGAGAGAAGUGAACCAGAGAAACACACGUUGUGGUAUAUUACCUGGUA

Variants of: B1
Assay: self-cleavage, relative activity (ratio to wild type); higher = more cleavage; co-transcriptional

Variant | self-cleavage
C48G G68C | 0.189
A49U U60G | 0.0756
A47G U70C | 0.1
A47G U70G | 0.115
C50G G54C | 0.634
A47G G69A | 0.0811
A47C C66G | 0.17
A47C C66U | 0.155
C50A G69A | 0.152
A49C G51C | 0.1
A49C G51U | 0.0813
C46G U67A | 0.094
A47C G57C | 0.0853
A47C G57U | 0.275
C46U U60G | 0.223
C46U G56U | 0.0878
C48U G69A | 0.178
A47C A64C | 0.233
A47C A64G | 0.265
A49U C50A | 0.293
A49U C50G | 0.193
C48U C65U | 0.154
A47G U58A | 0.221
C48G U62A | 0.0564

Variant | self-cleavage
A47C U52G | 0.231
A47C U52C | 0.376
G51A G56U | 0.166
C46G C48G | 0.0704
A49U G69A | 0.136
C48G U58G | 0.0532
C46A U60G | 0.102
C50A A61G | 0.12
A47G A49C | 0.307
A47G A49G | 0.129
C46G G69U | 0.105
C48U A64C | 0.255
C48U A64G | 0.0861
C48U A64U | 0.11
C50U U52G | 0.318
C48U G57A | 0.147
C46G G57A | 0.0965
C46G G57C | 0.0539
C50G U70A | 0.178
A49U A71C | 0.607
C48G U52A | 0.135
C48G U52C | 0.218
C50A G56A | 0.21
C50U A71C | 0.925

Variant | self-cleavage
C50U A71U | 0.211
C46U C65A | 0.184
C46U G54C | 0.149
A47U G56A | 0.187
A47U G56C | 0.125
C50G G69U | 0.156
C48A A59U | 0.121
C48A A59G | 0.219
C48A A59C | 0.139
A47U U53G | 0.108
A49U A61U | 0.108
A49U A61G | 0.13
A49C C65U | 0.08
A47U U67C | 0.0849
A47U U67G | 0.185
A47G G57U | 0.179
A47U A61G | 0.147
A47U A61C | 0.243
C48G A49C | 0.223
C46A U70A | 0.205
C46A U70G | 0.0934
C46A U70C | 0.026
C50A U55A | 0.6
C50A U55G | 0.419

Variant | self-cleavage
C46A U52C | 0.271
C46A U52G | 0.119
C46A U63G | 0.092
C46U A64U | 0.198
C46U U58G | 0.0629
C48A U62C | 0.207
C46U U52G | 0.197
C46A G57A | 0.177
A49U U55A | 1.03
A49U C66G | 0.136
A49U C66A | 0.181
A49U C66U | 0.102
A47U G57C | 0.157
A47C G68C | 0.195
A47C G68A | 0.268
A49U A64C | 0.163
A49U A64G | 0.145
G51A C65U | 0.151
A49G A61G | 0.211
A49G A61U | 0.217
C48A G69U | 0.121
C48A G69A | 0.173
A49G G68A | 0.147
C46U A71U | 0.121

Variant | self-cleavage
C48A C50A | 0.188
C48A C50U | 0.131
C48U U67C | 0.11
C48U U67A | 0.119
C48A U55G | 0.251
C48A U55A | 0.228
C50U G57A | 0.112
C50A G51C | 0.36
C50A G51A | 0.288
A47G C50U | 0.101
C46G A59G | 0.185
C46G A59C | 0.219
C48A G57U | 0.115
C50U G68C | 0.246
C48G A61C | 0.0868
C48G A61G | 0.131
C50G U60C | 0.353
C48G G51A | 0.172
A47C C50U | 0.303
C46A G56C | 0.122
C50G C65A | 0.463
A49C G54A | 0.235
G51A G57U | 0.299
C46A U58C | 0.206

Variant | self-cleavage
A47U U63A | 0.114
A47U U63G | 0.0673
C46A U62C | 0.193
C50G U52C | 0.155
C50G A71U | 0.148
C50G A71G | 0.202
C50G C66G | 0.0636
C46A C66A | 0.0901
C46A C66G | 0.14
C46A C66U | 0.15
A49C U58A | 0.082
C46A G68U | 0.137
C48G G56A | 0.124
C48G G56C | 0.922
A47U A71C | 0.304
A49U U70A | 0.237
C48A A64U | 0.0412
C48A U52A | 0.233
G51A C66U | 0.574
C48A U60C | 0.208
C48G A59G | 0.129
A47C U62C | 0.187
A47U U58C | 0.133
A47U U58G | 0.137

Variant | self-cleavage
A47G G68U | 0.104
A47G G68C | 0.143
C46U A61U | 0.267
A49C U55A | 0.164
A47U A49G | 0.161
A47U U70C | 0.0521
C50U U53G | 0.242
C50U U53C | 0.261
C48U A71C | 0.387
C48U A71U | 0.146
C50U A64G | 0.216
A47C G54A | 0.208
C48G C66U | 0.156
C46A U67G | 0.142
C46A U67C | 0.11
C50U A59U | 0.272
C46U U70A | 0.255
C46U U70G | 0.189
C50U C65A | 0.359
A47C A49U | 0.171
A47U A59U | 0.194
C48A C66U | 0.202
C48A C66G | 0.245
